± gives the uncertainty stated by the source.
B1: Formin-binding protein 4, residues 593 to 636; numbered along this chain, Q8N3X1 (parent)
chain: EINATPKGWSCHWDRDHRRYFYVNEQSGESQWEFPDGEEEEEES
B2: DnaJ homolog subfamily C member 2, residues 451 to 503; numbered along this chain, Q99543 (parent)
chain: SKNWSEDDLQLLIKAVNLFPAGTNSRWEVIANYMNIHSSSGVKRTAKDVIGKA

Variants of: B1
Test: abundance fitness (aPCA) (normalised: wild type 0, dead -1); higher = more abundant; growth selection in yeast, the domain comes from the species named
Settings: Homo sapiens

Row | Variant | abundance fitness
1 | EINATPKGWSCHWDRDHRRYFYVNEQSGESQWEFPDGEEKEEES [E40K] | -0.004 ± 0.09
2 | EINATPKGWSCHWDRDHRRYFYVNEQSGESQWEFPDGEEFEEES [E40F] | -0.144 ± 0.15
3 | EINATPKGWSCHWDRDHRRYFYVNEQSGESQWEFPDGEETEEES [E40T] | 0.151 ± 0.1
4 | EINATPKGWSCHWDRDHRRYFYVNEQSGESQWEFPDGEEQEEES [E40Q] | -0.033 ± 0.071
5 | EINATPKGWSCHWDRDHRRYFYVNEQSGESQWEFPDGEEWEEES [E40W] | -0.101 ± 0.078
6 | EINATPKGWSCHWDRDHRRYFYVNEQSGESQWEFPDGEEGEEES [E40G] | 0.012 ± 0.054
7 | EINATPKGWSCHWDRDHRRYFYVNEQSGESQWEFPDGEEPEEES [E40P] | -0.011 ± 0.061
8 | EINATPKGWSCHWDRDHRRYFYVNEQSGESQWEFPDGEEREEES [E40R] | -0.035 ± 0.058
9 | EINATPKGWSCHWDRDHRRYFYVNEQSGESQWEFPDGEEEEEET [S44T] | -0.084 ± 0.33
10 | EINATPKGWSCHWDRDHRRYFYVNEQSGESQWEFPDGEEEEEER [S44R] | 0.025 ± 0.3
11 | EINATPKGWSCHWDRDHRRYFYVNEQSGESQWEFPDGEEEEEEM [S44M] | -0.536 ± 0.17
12 | EINATPKGWSCHWDRDHRRYFYVNEQSGESQWEFPDGEEEEEEL [S44L] | -0.194 ± 0.12
13 | EINATPKGWSCHWDRDHRRYFYVNEQSGESQWEFPDGEEEEEED [S44D] | -0.043 ± 0.3
14 | EINATPKGWSCHWDRDHRRYFYVNEQSGESQWEFPDGEEEEEEH [S44H] | -0.013 ± 0.2
15 | EINATPKGWSCHWDRDHRRYFYVNEQSGESQWEFPDGEEEEEEG [S44G] | 0.083 ± 0.098
16 | EINATPKGWSCHWDRDHRRYFYVNEQSGESQWEFPDGEEEEEEQ [S44Q] | 0.247 ± 0.19
17 | EINATPKGWSCHWDRDHRRYFYVNEQSGESQWEFPDGEEEEEEV [S44V] | 0.253 ± 0.16
18 | EINATPKGWSCHWDRDHRRYFYVNEQSGESQWEFPDGEREEEES [E39R] | -0.068 ± 0.061
19 | EINATPKGWSCHWDRDHRRYFYVNEQSGESQWEFPDGEWEEEES [E39W] | -0.191 ± 0.074
20 | EINATPKGWSCHWDRDHRRYFYVNEQSGESQWEFPDGENEEEES [E39N] | 0.052 ± 0.096
21 | EINATPKGWSCHWDRDHRRYFYVNEQSGESQWEFPDGEVEEEES [E39V] | 0.008 ± 0.059
22 | EINATPKGWSCHWDRDHRRYFYVNEQSGESQWEFPDGEQEEEES [E39Q] | 0.074 ± 0.078
23 | EINATPKGWSCHWDRDHRRYFYVNEQSGESQWEFPDGESEEEES [E39S] | -0.056 ± 0.072
24 | EINATPKGWSCHWDRDHRRYFYVNEQSGESQWEFPDGEMEEEES [E39M] | -0.109 ± 0.083
25 | EINATPKGWSCHWDRDHRRYFYVNEQSGESQWEFPDGEPEEEES [E39P] | 0.041 ± 0.069
26 | EINATPKGWSCHWDRDHRRYFYVNEQSGESQWEFPDGELEEEES [E39L] | 0.075 ± 0.067
27 | EINATPKGWSCHWDRDHRRYFYVNEQSGESQWEFPDGETEEEES [E39T] | 0.11 ± 0.084

Variants of: B2
Test: as above
Settings: Homo sapiens

Row | Variant | abundance fitness
28 | SRNWSEDDLQLLIKAVNLFPAGTNSRWEVIANYMNIHSSSGVKRTAKDVIGKA [K2R] | -0.184 ± 0.062
29 | SQNWSEDDLQLLIKAVNLFPAGTNSRWEVIANYMNIHSSSGVKRTAKDVIGKA [K2Q] | -0.375 ± 0.12
30 | SHNWSEDDLQLLIKAVNLFPAGTNSRWEVIANYMNIHSSSGVKRTAKDVIGKA [K2H] | -0.214 ± 0.14
31 | SLNWSEDDLQLLIKAVNLFPAGTNSRWEVIANYMNIHSSSGVKRTAKDVIGKA [K2L] | -0.287 ± 0.067
32 | SWNWSEDDLQLLIKAVNLFPAGTNSRWEVIANYMNIHSSSGVKRTAKDVIGKA [K2W] | -0.334 ± 0.076
33 | SGNWSEDDLQLLIKAVNLFPAGTNSRWEVIANYMNIHSSSGVKRTAKDVIGKA [K2G] | -0.159 ± 0.064
34 | SFNWSEDDLQLLIKAVNLFPAGTNSRWEVIANYMNIHSSSGVKRTAKDVIGKA [K2F] | -0.314 ± 0.17
35 | SINWSEDDLQLLIKAVNLFPAGTNSRWEVIANYMNIHSSSGVKRTAKDVIGKA [K2I] | 0.1 ± 0.11
36 | SSNWSEDDLQLLIKAVNLFPAGTNSRWEVIANYMNIHSSSGVKRTAKDVIGKA [K2S] | -0.059 ± 0.079
37 | SCNWSEDDLQLLIKAVNLFPAGTNSRWEVIANYMNIHSSSGVKRTAKDVIGKA [K2C] | -0.274 ± 0.1
38 | SANWSEDDLQLLIKAVNLFPAGTNSRWEVIANYMNIHSSSGVKRTAKDVIGKA [K2A] | -0.259 ± 0.084
39 | STNWSEDDLQLLIKAVNLFPAGTNSRWEVIANYMNIHSSSGVKRTAKDVIGKA [K2T] | -0.017 ± 0.081
40 | SVNWSEDDLQLLIKAVNLFPAGTNSRWEVIANYMNIHSSSGVKRTAKDVIGKA [K2V] | -0.365 ± 0.077
41 | SMNWSEDDLQLLIKAVNLFPAGTNSRWEVIANYMNIHSSSGVKRTAKDVIGKA [K2M] | -0.076 ± 0.095
42 | SENWSEDDLQLLIKAVNLFPAGTNSRWEVIANYMNIHSSSGVKRTAKDVIGKA [K2E] | -0.096 ± 0.073
43 | SDNWSEDDLQLLIKAVNLFPAGTNSRWEVIANYMNIHSSSGVKRTAKDVIGKA [K2D] | -0.044 ± 0.096
44 | SNNWSEDDLQLLIKAVNLFPAGTNSRWEVIANYMNIHSSSGVKRTAKDVIGKA [K2N] | 0.076 ± 0.18
45 | TKNWSEDDLQLLIKAVNLFPAGTNSRWEVIANYMNIHSSSGVKRTAKDVIGKA [S1T] | -0.086 ± 0.093
46 | AKNWSEDDLQLLIKAVNLFPAGTNSRWEVIANYMNIHSSSGVKRTAKDVIGKA [S1A] | -0.372 ± 0.13
47 | PKNWSEDDLQLLIKAVNLFPAGTNSRWEVIANYMNIHSSSGVKRTAKDVIGKA [S1P] | -0.547 ± 0.25
48 | HKNWSEDDLQLLIKAVNLFPAGTNSRWEVIANYMNIHSSSGVKRTAKDVIGKA [S1H] | -0.348 ± 0.41
49 | LKNWSEDDLQLLIKAVNLFPAGTNSRWEVIANYMNIHSSSGVKRTAKDVIGKA [S1L] | -0.32 ± 0.11
50 | MKNWSEDDLQLLIKAVNLFPAGTNSRWEVIANYMNIHSSSGVKRTAKDVIGKA [S1M] | -0.364 ± 0.26
51 | YKNWSEDDLQLLIKAVNLFPAGTNSRWEVIANYMNIHSSSGVKRTAKDVIGKA [S1Y] | -0.37 ± 0.14
52 | VKNWSEDDLQLLIKAVNLFPAGTNSRWEVIANYMNIHSSSGVKRTAKDVIGKA [S1V] | -0.063 ± 0.11
53 | GKNWSEDDLQLLIKAVNLFPAGTNSRWEVIANYMNIHSSSGVKRTAKDVIGKA [S1G] | 0.092 ± 0.092
54 | WKNWSEDDLQLLIKAVNLFPAGTNSRWEVIANYMNIHSSSGVKRTAKDVIGKA [S1W] | -0.721 ± 0.12
55 | FKNWSEDDLQLLIKAVNLFPAGTNSRWEVIANYMNIHSSSGVKRTAKDVIGKA [S1F] | -0.112 ± 0.14
56 | CKNWSEDDLQLLIKAVNLFPAGTNSRWEVIANYMNIHSSSGVKRTAKDVIGKA [S1C] | -0.261 ± 0.097

Source: the Human Domainome abundance scans (Beltran et al. 2025)
